Experimental data published in paper PMC3879539, “Control of KirBac3.1 Potassium Channel Gating at the Interface between Cytoplasmic Domains*” (The Journal of Biological Chemistry, 2013).

Molecular target: the molecule itself
Test: crystal structure; purified channel in 14 mM HEGA-10, 6 mg/ml; crystallised in 10% glycerol, 90 mM HEPES pH 7, 20% PEG-400, 5% PEG-4000, 2.5% PEG-8000, 10 mM spermidine, 20 °C; space group P4212, one molecule in the asymmetric unit; 2.46 Å

B1: KirBac3.1 S129R/S205L (natural protein, Magnetospirillum magnetotacticum)
chain: MTGGMKPPARKPRILNSDGSSNITRLGLEKRGWLDDHYHDLLTVSWPVFITLITGLYLVTNALFALAYLACGDVIENARPGSFTDAFFFSVQTMATIGYGKLIPIGPLANTLVTLEALCGMLGLAVAARLIYARFTRPTAGVLFSSRMVISDFEGKPTLMMRLANLRIEQIIEADVHLVLVRSEISQEGMVFRRFHDLTLTRSRLPIFSLSWTVMHPIDHHSPIYGETDETLRNSHSEFLVLFTGHHEAFAQNVHARHAYSCDEIIWGGHFVDVFTTLPDGRRALDLGKFHEIAQ
notes: KirBac3.1, inwardly rectifying potassium (Kir) channel homolog from Magnetospirillum magnetotacticum; the final model contains 283 of 301 residues; The tetramer arises from crystallographic symmetry (one molecule in the asymmetric unit, space group P4212); also called S129R/S205L double mutant; S129R/S205L mutant channel; source: size exclusion column, detergent exchanged to HEGA-10
binding result: binds
